The target in the assay is S2H14 (variable region fused with the constant region of IgG1). Briefly: SPR.

pKd: −log10 of the molar value.

In general, pKd refers to the negative decadic logarithm of the Kd, by convention in mol/L. The low end stands for a high Kd, the high end for a low Kd. The substance “SARS-CoV-2 receptor binding domain (RBD), His-tagged (from UniProt P0DTC2 319-541) (domain or fragment)” showed a pKd of 8.39.

Source of the values: publication PMC8142884.
